Data published in PMC11525548.

How the values were obtained:
[1] = target: tusa Fab+Fc light chain Pro95Ala variant (human) (UniProt P01834); assay: SPR
[2] = target: human CEACAM5 extracellular domain (Homo sapiens) (UniProt P06731); assay: SPR

Row | Substance | Kd [1] | koff [1] | kon [1] | Kd [2] | koff [2] | kon [2] | t1/2 of dissociation [2]
1 | human CEACAM5 extracellular domain (from UniProt P06731 35-685) (domain or fragment) | 13500 nM | 0.0177 s⁻¹ | 1310 M⁻¹ s⁻¹ |  |  |  | 
2 | tusa Fab+Fc heavy chain Gly26Ala variant (antibody) |  |  |  | 8.2 nM | 0.00322 s⁻¹ | 395000 M⁻¹ s⁻¹ | 
3 | tusa Fab+Fc heavy chain His99Ala variant (antibody) |  |  |  | 306 nM | 0.0199 s⁻¹ | 64800 M⁻¹ s⁻¹ | 
4 | tusa Fab+Fc heavy chain Phe29Ala variant (antibody) |  |  |  | 8.2 nM | 0.00368 s⁻¹ |  | 
5 | tusa Fab+Fc heavy chain Ser30Ala variant (antibody) |  |  |  | 6.7 nM | 0.00205 s⁻¹ | 307000 M⁻¹ s⁻¹ | 
6 | tusa Fab+Fc heavy chain Ser53Ala variant (antibody) |  |  |  | 5.6 nM |  | 321000 M⁻¹ s⁻¹ | 
7 | tusa Fab+Fc heavy chain Tyr50Ala variant (antibody) |  |  |  | 2010 nM | 0.0531 s⁻¹ | 26400 M⁻¹ s⁻¹ | 
8 | tusa Fab+Fc light chain His91Ala variant (antibody) |  |  |  |  | 0.0637 s⁻¹ | 73200 M⁻¹ s⁻¹ | 
9 | tusa Fab+Fc light chain Phe30Ala variant (antibody) |  |  |  | 1340 nM | 0.0362 s⁻¹ |  | 18 s
10 | tusa Fab+Fc light chain Ser31Ala variant (antibody) |  |  |  | 8.2 nM | 0.00238 s⁻¹ | 291000 M⁻¹ s⁻¹ | 
11 | tusa Fab+Fc light chain Tyr92Ala variant (antibody) |  |  |  | 1790 nM | 0.0552 s⁻¹ | 30800 M⁻¹ s⁻¹ | 
12 | tusamitamab antigen-binding fragment region plus the fragment crystallizable region, wild type (antibody) |  |  |  | 14 nM | 0.00386 s⁻¹ | 275000 M⁻¹ s⁻¹ | 
